Experimental data as given in US20170306001A1.

B1: xi-IgG1-9F4 (antibody, V domains shown)
V domain 1: QQSEAELARPGASVKMSCKASGFTLTTFTIHWVKQRPGQGLEWIGYINPRSGYTDYNQKFKDNTTLTVDKSSSTAYMQLSSLTSEDSAVFYCARSYYDYDVFDYWGQGTTLTV
V domain 2: DVQMTQSPSSLSASLGGKVTITCTARQDINKYIAWYQHKPGKGPRLLIHYTSTLQPGIPSRFSGSGSGTDYSFTISNLEPEDIATYYCLQYDNLVTFGGGTK
B2: xi-IgA1-9F4 (antibody, V domains shown)
VH: QVQLQQSEAELARPGASVKMSCKASGFTLTTFTIHWVKQRPGQGLEWIGYINPRSGYTDYNQKFKDNTTLTVDKSSSTAYMQLSSLTSEDSAVFYCARSYYDYDVFDYWGQGTTLTVSS
VL: DVQMTQSPSSLSASLGGKVTITCTARQDINKYIAWYQHKPGKGPRLLIHYTSTLQPGIPSRFSGSGSGTDYSFTISNLEPEDIATYYCLQYDNLVTFGGGTKLELKR

What was measured:
[1] = molecular target: Indo05-HA, full length HA of A/Indonesia/5/2005(H5N1) (clade 2.1) (influenza A virus A/Indonesia/5/2005(H5N1)); test: cell-based or functional assay
[2] = molecular target: DL06-HA, full length HA of A/duck/Laos/3295/2006(H5N1) (clade 2.3.4) (influenza A virus A/duck/Laos/3295/2006(H5N1)); test: cell-based or functional assay
[3] = molecular target: VN04-HA, full length HA of A/Vietnam/1203/2004(H5N1) (clade 1) (influenza A virus A/Vietnam/1203/2004(H5N1)); test: cell-based or functional assay
[4] = molecular target: Hatay04-HA, full length HA of A/chicken/Hatay/2004(H5N1) (clade 1) (influenza A virus A/chicken/Hatay/2004(H5N1))
[5] = molecular target: DL06-HA, full length HA of A/duck/Laos/3295/2006(H5N1) (clade 2.3.4) (influenza A virus A/duck/Laos/3295/2006(H5N1))
[6] = molecular target: VN04-HA, full length HA of A/Vietnam/1203/2004(H5N1) (clade 1) (influenza A virus A/Vietnam/1203/2004(H5N1))

Binder	IC50, entry of HA-pseudotyped lentiviral particles into MDCK cells (luciferase) [1] [ng/mL]	IC50, entry of HA-pseudotyped lentiviral particles into MDCK cells (luciferase) [2] [ng/mL]	reduction of HApp entry at the highest concentration tested [2] [%]	IC50, entry of HA-pseudotyped lentiviral particles into MDCK cells (luciferase) [3] [ng/mL]	reduction of HApp entry at the highest concentration tested [3] [%]	endpoint titre [4] [ng/mL]	endpoint titre [5] [ng/mL]	endpoint titre [6] [ng/mL]	fold change of IC50 in the HApp neutralization assay against mouse-9F4 [3] [fold]	inhibition of VN04-HApp entry at 1000 ng/ml [3] [%]
B1	10	10	90	10	90	–	–	–	–	–
B2	–	–	–	100	–	1250	1250	1250	10	75
